The data set is described as follows: yeast display, Sf9 membrane polyspecificity reagent, FACS + sequencing; frameworks hold sequencing errors. In outline:
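Galactose-induced (36–48 hours) yeast carrying a synthetic nanobody display library were exposed to 10% biotinylated, detergent-solubilized Sf9 membrane reagent at 4 °C for 1 hour. FACS followed streptavidin microbead enrichment, using low and high (top ~1%) gates for expression (anti-HA) and reagent binding (streptavidin). Colony PCR, MiSeq 2 × 250 sequencing and CDR-length filtering followed. Labels for polyreactivity reflect the gate of origin.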
For the sequence “QVQLVESGGGLVQAGGSLRLSCAASGFTIVPYAMGWYRQAPGKERELVAAITSGGSTYYADSVKGRFTISRDNAKNTVYLQMNSLKPEDTAVYYCNRGRYRRRYTYSQYDYWGQGTQVTVSS”, the “polyreactivity (PSR sort gate)” value is recorded as “high polyreactivity”.
With “QVQLVESGGGLVQAGGSLRLSCAASGFTIYGYAMGGDRQAPGPERELVAAITSRGGSTYYADSVKGRFTISRDNAKNTVYLQMNSLKPEDTAVYYCSKASGIYLGSRYYDVPMDYWGQGTQVTVSS”, the “polyreactivity (PSR sort gate)” value was “high polyreactivity”.
The result for “QVQLVESGGGLVQAGGSLRLSCAASGFTIYGYVMGWYRQAPGKVRELVAAISYSAGRTYYADSVKGRFTISRDNAKNTVYLQMNSLKPEDTAVYYCNAPSVGAAFDYCGQGTQVTVSS” reads “high polyreactivity”; that for “QVQLVESGGGLVQAGGSLRLSCAASGFTIYPYAMGWYRQAPGKERELVAAISQRGGRTSYADSVKGRFTISRDNAKNTVYLQMNSLKPEDTAVYYCAARFWATEGYWGQGTQVTVSS”, “high polyreactivity”.
The same measure for “QVQLVESGGGLVQAGGSLRLSCAASGFTIYRYAMGWYRQAPGKERELVAAITSRGGSTYYADSVKGRFTISRDNAKNTVYLQMNSLKPEDTAVYYCAAAGYYPAYDYWGQGTQVTVSS”: “high polyreactivity”; for “QVQLVESGGGLVQAGGSLRLSCAASGFTLAFYGMGRSRQAPGKERELVAAISRSGGSTYYADSVKGRFTISRDNAKNTVYLQMNSLKPEDTAVYYCAAAFRAGDVYGYYWGQGTQVTVSS”: “high polyreactivity”; for “QVQLVESGGGLVQAGGSLRLSCAASGFTLARYAMGWYRQAPGKEREFVAAITNGGRTNYADSVKGRFTISRDNAKNTVYLQMNSLKPEDTAVYYCAARYRFGGIRRYNYWGQGTQVTVSS”: “high polyreactivity”.
The same measure for “QVQLVESGGGLVQAGGSLRLSCAASGFTLAWNAMGWYRQAPGKERELVATISRSGSSTSYADSVKGRFTISRDTAKNTVYLQMNSLKPEDTAVYYCAADRYTVRMDYWGQGTQVTVSS”: “high polyreactivity”.
For “QVQLVESGGGLVQAGGSLRLSCAASGFTLDKYAMGSNRQAPGTERELVAAINWSGGSTYYADSVKGRFTISRDNAKNTVYLQMNSLKPEDTAVYYCNAQAYRRRRYYYWGQGTQVTVSS”, the “polyreactivity (PSR sort gate)” value is given as “high polyreactivity”.
The result for “QVQLVESGGGLVQAGGSLRLSCAASGFTLDVYVMGWYRPAPGKERELVAAIRDSDDDTSYADSVKGRFTISRDNAKNTVYLQMNSLKPEDTAVYYCAVDYPTQPWGYYLLMDYWGQGTQVTVSS” reads “low polyreactivity”; that for “QVQLVESGGGLVQAGGSLRLSCAASGFTLEDYTMGWYRQAPGKERELVARITSGGSTNYADSVKGRFTISRDNAKNTVYLQMKSLKPEDTAVYYCNARYAWINMDYWGQGTQVTVSS”, “low polyreactivity”.
The result for “QVQLVESGGGLVQAGGSLRLSCAASGFTLFTNAMGWYRQAPGKERELLARISLGGSTKYADSVKGRFTISRDNAKNTVYVQMNSLKPEDTAVYYCATGYYGYRYGYWGQATQVTVSS” reads “high polyreactivity”.
Regarding “QVQLVESGGGLVQAGGSLRLSCAASGFTLFVYTMGWYRQAPGKERELVAAISSGDSTYYADSVKGRFTISRDNAKNTVYLQMNSLKPEDTAVYYCAAEWSGEAAWQVGAEDDYWGQGTQVTVSS”, the “polyreactivity (PSR sort gate)” value is “low polyreactivity”.
The result for “QVQLVESGGGLVQAGGSLRLSCAASGFTLFYNAMGWYRQAPGKERELVAAITARGGGTYYADSVKGRFTISRDNAKNTVYLQMNSLKPEDTAVYYCNAGQNQRVDRTDPYDYWGQGTQVTVSS” reads “low polyreactivity”; that for “QVQLVESGGGLVQAGGSLRLSCAASGFTLGFNAMGWYRQAPGKERELVAAITIGGTTYYADSVKGRFTISRDNAKNTVYLQMNSLKPEDTAVYYCAAARFLWFYVYTTRVQRYGYWGQGTQVTVSS”, “low polyreactivity”.
Consider “QVQLVESGGGLVQAGGSLRLSCAASGFTLGGNAMGWYRQAPGKERELVAAITFSGGSTYYADSVKGRFTISRDNAKNIVYLQMNSLKPEDTAVYYCAKTHGYYYYYTYDYWGQGTQVTVSS”, for which the “polyreactivity (PSR sort gate)” value is listed as “low polyreactivity”.
The same measure for “QVQLVESGGGLVQAGGSLRLSCAASGFTLGWYAKGWYRQAPGKERELVASINWDGGSTYYADSVKVRFTISRDNAKNTVYLPMNSLKAEDTAVDYWAAPPGGGGGIGYDSWGQGTQVTVSS”: “high polyreactivity”; for “QVQLVESGGGLVQAGGSLRLSCAASGFTLGWYVMGWYRQAPGKERELVAGISWSGGNTYYADSVKGRFTISRDNAKNTVYLQMHSLKPEDTAVYYCNADRTYPDYDYWGQGTQVTVSS”: “low polyreactivity”.
The same measure for “QVQLVESGGGLVQAGGSLRLSCAASGFTLGYYTMGWYRQAPGKERELVAAIRSNGGSTYYADSVKGRFTISRDNAKNTVYLQMNSLKPEDTAVYYCAADHAYFLTHSSYLFYYWGQGTQVTVSS”: “high polyreactivity”; for “QVQLVESGGGLVQAGGSLRLSCAASGFTLHSYAMGWYRQAPGKERELVAAITTGGSTYYADSVKGRFTISRDNAKNTVYLQMNSLKPEDTAVYYCAAEDPGPYGGYDYWGQGTQVTVSS”: “low polyreactivity”.
The same measure for “QVQLVESGGGLVQAGGSLRLSCAASGFTLLGYAMGWYRQAPGKERELVAAISRGGNTYYADSVKGRFTISRDNAKNTVYLQMNSLKPEDTAVYNCAAQTYSTGYVTRFNYWGQGTQVTVSS”: “high polyreactivity”.
As to “QVQLVESGGGLVQAGGSLRLSCAASGFTLLPNALGWYRQAPGKERELVAAITASGGRTYYADSVKGRFSISRDNAKNTVYLLMKSLKPVDTAVYDCTAGVYYYTPYTRMDYWGQGTQVTVAS”, the “polyreactivity (PSR sort gate)” value is on record as “low polyreactivity”.
The same measure for “QVQLVESGGGLVQAGGSLRLSCAASGFTLLTYVMGWYIQAPGKERELVAAISKSGSRTYYADSVKGRFTISRDNAKNTVYLQMNSLKPEDTAVYYCAADTSAYRYDYWGQGTQVTVSS”: “high polyreactivity”; for “QVQLVESGGGLVQAGGSLRLSCAASGFTLLTYVMGWYRQAPGKERELVAAITSSGGRTYYADSVKGRFTISRDNAKNTVYLQMNSLKPEDTAVYYCAAVGWGSSYRARYGYWGQGTQVTVSS”: “high polyreactivity”; for “QVQLVESGGGLVQAGGSLRLSCAASGFTLPLYAMGWYRQAPGKERELVATISSGGTTYYADSVKGRFTISRDNAKNTVYLQMNSLKPEDTAVYYCNTLRQLGRPFYYWGQGTQVTVSS”: “high polyreactivity”.
The result for “QVQLVESGGGLVQAGGSLRLSCAASGFTLQPYAMGWYRQAPGKERELVAAISSRGGRTYYADSVKGRFTISRDNAKNTVYLQMNSLKPEDTAVYYCAATGGYVYPRSRLYYYWGQGNQVTVSS” reads “high polyreactivity”.
The result for “QVQLVESGGGLVQAGGSLRLSCAASGFTLQQYTMGWYIQAPGKERELVAAISTSGVRTYYADSVKGRFTISRDNAKNTVYLQMNSLKPEDTAVYYCNAAWVYGIGWYSGYDYWGQGTQVTVSS” reads “high polyreactivity”.
Regarding “QVQLVESGGGLVQAGGSLRLSCAASGFTLRGNAMGWYRQAPGKESELVAAISTGGSTYNADSVKGRFTISRDNAKITVYLQMNSLNPEDTAVYYCARRGWFHYRYYYWGQGSQVTVSS”, the “polyreactivity (PSR sort gate)” value is on record as “high polyreactivity”.
The same measure for “QVQLVESGGGLVQAGGSLRLSCAASGFTLRRNAMGWYRQAPGKERELVAAISSSGSTYYADSVKGRFTISRDNAKNTVYLQMNSLKPEDTAVYYCAASATYKVRGGYWGQGTQVTVSS”: “high polyreactivity”; for “QVQLVESGGGLVQAGGSLRLSCAASGFTLRSNAMGWYRQAPGKERELVASITDGTSTNYADSVKGRFTISRDNAKNTVYLQMNSLKPEDTAVYYCATRHPARRDYWGQGTQVTVSS”: “low polyreactivity”; for “QVQLVESGGGLVQAGGSLRLSCAASGFTLRVNAMGWYRQAPGKERELVAAISDSGTNTYYADSVKGRFTISRDNAKNTVYLQMNSLKPEDTAVYYCATAVYLVIFEYDYWGQGTQVTVSS”: “low polyreactivity”.
The result for “QVQLVESGGGLVQAGGSLRLSCAASGFTLRVNDMGWYRQAPGKERELVAGITVSGGSTYYADSVKGRFTISRDNAKNTVYLQMNSLKPEDTAVYYCNADNYENATGMDYWGQGTQVTVSS” reads “low polyreactivity”; that for “QVQLVESGGGLVQAGGSLRLSCAASGFTLSGNAMGWYRQAPGKERELVAAINGSGGSTYYADSVKGRFTISRDNAKNTVYLQMNSLKPEDTAVYYCAAAGSYGQAYSIFTLDSWGPGTQVTVSS”, “low polyreactivity”; that for “QVQLVESGGGLVQAGGSLRLSCAASGFTLSSYVMGWYRQAPGKERELVAAITSSGGSTYYADSVKGRFTISRDNAKNTVYLQMNSLKPEDTAVYYCNAVWWYKLYFDDDYWGQGTQVNVSS”, “high polyreactivity”.
The same measure for “QVQLVESGGGLVQAGGSLRLSCAASGFTLTGNAMGWYRQAPGKERELVAAISRNGGSTFYADSVKGRFTISRDNAKNTVYLQMNSLKPEDTAVYYCNASRFRHSAYKYDSWGQGTQVTVSS”: “high polyreactivity”; for “QVQLVESGGGLVQAGGSLRLSCAASGFTLTLRYAMGLYRQAPGKERELVAAISSGGRTKYADSVKGRFTISRDNAKNTVYLQMNSRKPEDTAVYYCNAVTQREYEEGDYWGQGTQVTVSS”: “high polyreactivity”; for “QVQLVESGGGLVQAGGSLRLSCAASGFTLTRNAMGWYRQAPGKERELVAAISWSGGTTYYADSVKGRFTISRDNAKNTVYLQMNSLKPEDTADYYCNTASWRAQYYYWGQGTQVTVSS”: “high polyreactivity”.
Turning to “QVQLVESGGGLVQAGGSLRLSCAASGFTLVKYVMGWYRPAPGKERELVAAINRSGTSTYYADSVKGRFTISRDNAKNTVYLQMNSLKPEDTAVYYCAAERSRNFDWGQGTQVTVSS”, the “polyreactivity (PSR sort gate)” value was “high polyreactivity”.
The same measure for “QVQLVESGGGLVQAGGSLRLSCAASGFTLYVNAKGWYRQAPGKERELVAAISWSGGSTYYADSVKGRFTISRDNAKNTVYLQMNSLKPEDTAVYYCNAKYHRRLQWGTRYYYWGQGTQVTVSS”: “high polyreactivity”; for “QVQLVESGGGLVQAGGSLRLSCAASGFTSGQYAMGWYRQAPGKERELVAAISWSGGSTYYADSVKGRFTISRDNAKNTVYLQMNSLKPEDTAVYYCAAGKTPQKYGGFNYWGQGTQVTVSS”: “high polyreactivity”.
The result for “QVQLVESGGGLVQAGGSLRLSCAASGFTSNYYAMGGYRQAAGKERELVAAITTGGSTHYADSVQGRFTISRDNAKNTVYVQMNSLKPEDTAVYYCAADLKDTRLFPWFCEYDYWGQGTQVTVSS” reads “low polyreactivity”.
